Experimental data taken from US20250145706A1.

Columns and labels:
[1] = target: IGHV4-39/IGLV3-21^R110 BCR on CLL B cells (PBMCs) of a patient (human); assay: flow cytometry; PBMCs of a CLL patient with IGHV4-39/IGLV3-21^R110 BCR, co-stained with anti-CD19 VioBright515
[2] = target: BCRs of a CLL patient, which does not harbor IGLV3-21^R110 (human); assay: flow cytometry; PBMCs of a patient with non-IGLV3-21^R110 CLL, co-stained with anti-CD19 (axis label anti-CD19 FITC)
[3] = target: IGHV3-21/IGLV3-21^R110 BCR, membrane-bound on murine TKO cells (human); assay: flow cytometry; cell mix A (1:1 IGHV3-21/IGLV3-21^R110 BCR TKO cells and BCR-negative TKO cells), co-stained with anti-IgM-PE
[4] = target: IGHV3-21/IGLV3-21^G110 BCR, membrane-bound on murine TKO cells (human); assay: flow cytometry; cell mix B (1:1 IGHV3-21/IGLV3-21^G110 BCR TKO cells and BCR-negative TKO cells), co-stained with anti-IgM-PE

B1: mAb01-01 (antibody, V domains shown)
VH: QVQLQQSGPGLVQPSQSLSITCTVSGFSLTSYGIHWVRQSPGKGLEWLGVIWRGGGTDSNAAFMSRLSITKDNSKSQVFFKMNSLQADDTAIYYCARSRYDEEESMNYWGQGTSVTVSS
VL: QIVLTQSPASLSASVGETVTITCRASGNIHSYLAWYQQKQGKSPQLLVYNAKTLADGVPSRFSGSGSGTQYSLKINSLQPEDFGSYYCQHFWNTPPTFGAGTKLELKR
% of gated cells in Q5, anti-CD19 positive and mAb01-01-APC negative [1]: 0.29%
% of gated cells in Q6, anti-CD19 positive and mAb01-01-APC positive [1]: 98.7%
% of gated cells in Q5, anti-CD19 positive and mAb01-01-APC negative [2]: 98.8%
% of gated cells in Q6, anti-CD19 positive and mAb01-01-APC positive [2]: 0.28%
% of gated cells (Gate P1) in Q1, anti-IgM-PE positive and mAb01-01-APC negative [3]: 2.78%
% of gated cells (Gate P1) in Q2, anti-IgM-PE positive and mAb01-01-APC positive [3]: 45.5%
% of gated cells (Gate P1) in Q1, anti-IgM-PE positive and mAb01-01-APC negative [4]: 42.2%
% of gated cells (Gate P1) in Q2, anti-IgM-PE positive and mAb01-01-APC positive [4]: 1.11%
